The values below come from article PMC9092267.

Usually pKd stands for −log10 of the Kd, conventionally taken in molar units.

pKd: −log10 of the molar value.

The target of the assay is CK2α with para-azidophenylalanine at Tyr239 coupled with DBCO-Sulfo-Cy5 (Homo sapiens) (UniProt P68400). The assay can be described thus: MST; 0.1526 to 5,000 nM GST cleaved CK2β titrated to 30 nM Cy5-labelled CK2α; 50 mM Tris-HCl (pH 8), 500 mM NaCl, 500 μM CaCl2, 0.05% Tween 20, 0.5% (v/v) DMSO; 25 °C; Monolith NT.115.

For the substance “casein kinase II subunit beta (CK2β), wild type, GST cleaved (from UniProt P67870 1-215) (natural protein)”, the pKd was 7.89.
Substance “casein kinase II subunit beta (CK2β) NP_001311.3; p.Asp32His, GST cleaved (from UniProt P67870 1-215) (natural protein)” had a pKd of 7.80. The pKd values of the last two substances are within 0.2 log units of each other.
